Biological target: the molecule itself
Experiment: SEC; 1 ml (20 mg, 400 µM) purified Csk loaded onto a HiLoad 16/60 Superdex 200 column; apparent molecular weight from partition coefficients of standard proteins

B1: purified recombinant Csk WT (natural protein, mouse, UniProt P41241 1-450, looked up)
chain: MSAIQAAWPSGTECIAKYNFHGTAEQDLPFCKGDVLTIVAVTKDPNWYKAKNKVGREGIIPANYVQKREGVKAGTKLSLMPWFHGKITREQAERLLYPPETGLFLVRESTNYPGDYTLCVSCEGKVEHYRIMYHASKLSIDEEVYFENLMQLVEHYTTDADGLCTRLIKPKVMEGTVAAQDEFYRSGWALNMKELKLLQTIGKGEFGDVMLGDYRGNKVAVKCIKNDATAQAFLAEASVMTQLRHSNLVQLLGVIVEEKGGLYIVTEYMAKGSLVDYLRSRGRSVLGGDCLLKFSLDVCEAMEYLEGNNFVHRDLAARNVLVSEDNVAKVSDFGLTKEASSTQDTGKLPVKWTAPEALREKKFSTKSDVWSFGILLWEIYSFGRVPYPRIPLKDVVPRVEKGYKMDAPDGCPPAVYEVMKNCWHLDAATRPTFLQLREQLEHIKTHELHL
notes: Csk, tyrosine-protein kinase, mouse, full length (50.6 kDa), from pGEX-6P-3; also called WT Csk; full-length Csk; source: E. coli BL21(DE3), purified (GST Gravitrap, PreScission cleavage, HiTrap Q, Superdex 200); not shown: GST, N-terminal, cleaved
Question: Does B1 bind?
Answer: binds
